Source: publication PMC6591243, “Characterization of metal binding of bifunctional kinase/phosphatase AceK and implication in activity modulation” (Scientific Reports, 2019)

T1: phospho-IDH (isocitrate dehydrogenase phosphorylated by AceK) (E. coli) (UniProt P08200)
T1 sequence (chain, phosphorylated by AceK (residue not printed)): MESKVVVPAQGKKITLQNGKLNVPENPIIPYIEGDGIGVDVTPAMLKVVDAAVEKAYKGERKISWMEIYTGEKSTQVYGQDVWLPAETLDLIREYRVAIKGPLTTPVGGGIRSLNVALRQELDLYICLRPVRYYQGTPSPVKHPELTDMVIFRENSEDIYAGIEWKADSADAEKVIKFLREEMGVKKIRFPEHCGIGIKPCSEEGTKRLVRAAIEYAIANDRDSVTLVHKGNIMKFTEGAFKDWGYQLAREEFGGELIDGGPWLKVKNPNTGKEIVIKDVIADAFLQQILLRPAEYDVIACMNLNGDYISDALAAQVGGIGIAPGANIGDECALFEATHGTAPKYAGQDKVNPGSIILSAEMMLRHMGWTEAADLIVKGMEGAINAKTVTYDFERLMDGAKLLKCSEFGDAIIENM


Experiments:
[1] = biological target: T2, AceK (isocitrate dehydrogenase kinase/phosphatase) (Escherichia coli, UniProt P11071); assay: X-ray crystallography; assay type: binding; conditions: allosteric site at interface of kinase and regulatory domains; complex with ADP and Mn2+; AMP not listed among crystallisation additions
T2 construct: hexahistidine-tagged, expressed in E. coli BL21 (DE3), Ni-NTA and Superdex200; 66 kDa

[2] = biological target: T1, phospho-IDH (isocitrate dehydrogenase phosphorylated by AceK) (E. coli)

Molecule	Km for phospho-IDH, phosphatase kinetics (20 mM Hepes pH 7.0, 2.0 mM Mn2+, 2.0 mM ADP, 37 °C) [2]	X-ray crystallography [1]
Nc1ncnc2c1ncn2[C@@H]1O[C@H](COP(=O)(O)O)[C@@H](O)[C@H]1O [AMP]		a buried ADP molecule and a bound AMP at the interface of the two domains
AceK D477A (enzyme) MPRGLELLIAQTILQGFDAQYGRFLEVTSGAQQRFEQADWHAVQQAMKNRIHLYDHHVGLVVEQLRCITNGQSTDAAFLLRVKEHYTRLLPDYPRFEIAESFFNSVYCRLFDHRSLTPERLFIFSSQPERRFRTIPRPLAKDFHPDHGWESLLMRVISDLPLRLRWQNKSRDIHYIIRHLTETLGTDNLAESHLQVANELFYRNKAAWLVGKLITPSGTLPFLLPIHQTDDGELFIDTCLTTTAEASIVFGFARSYFMVYAPLPAALVEWLREILPGKTTAELYMAIGCQKHAKTESYREYLVYLQGCNEQFIEAPGIRGMVMLVFTLPGFDRVFKVIKDRFAPQKEMSAAHVRACYQLVKEHDRVGRMADTQEFENFVLEKRHISPALMELLLQEAAEKITDLGEQIVIRHLYIERRMVPLNIWLEQVEGQQLRDAIEEYGNAIRQLAAANIFPGDMLFKNFGVTRHGRVVFYDYAEICYMTEVNFRDIPPPRYPEDELASEPWYSVSPGDVFPEEFRHWLCADPRIGPLFEEMHADLFRADYWRALQNRIREGHVEDVYAYRRRQRFSVRYGEMLF	16.1 μM	
AceK D475A (enzyme) MPRGLELLIAQTILQGFDAQYGRFLEVTSGAQQRFEQADWHAVQQAMKNRIHLYDHHVGLVVEQLRCITNGQSTDAAFLLRVKEHYTRLLPDYPRFEIAESFFNSVYCRLFDHRSLTPERLFIFSSQPERRFRTIPRPLAKDFHPDHGWESLLMRVISDLPLRLRWQNKSRDIHYIIRHLTETLGTDNLAESHLQVANELFYRNKAAWLVGKLITPSGTLPFLLPIHQTDDGELFIDTCLTTTAEASIVFGFARSYFMVYAPLPAALVEWLREILPGKTTAELYMAIGCQKHAKTESYREYLVYLQGCNEQFIEAPGIRGMVMLVFTLPGFDRVFKVIKDRFAPQKEMSAAHVRACYQLVKEHDRVGRMADTQEFENFVLEKRHISPALMELLLQEAAEKITDLGEQIVIRHLYIERRMVPLNIWLEQVEGQQLRDAIEEYGNAIRQLAAANIFPGDMLFKNFGVTRHGRVVFYAYDEICYMTEVNFRDIPPPRYPEDELASEPWYSVSPGDVFPEEFRHWLCADPRIGPLFEEMHADLFRADYWRALQNRIREGHVEDVYAYRRRQRFSVRYGEMLF	1.95 μM	

The next lines start with results.

Km for phospho-IDH, phosphatase kinetics (20 mM Hepes pH 7.0, 2.0 mM Mn2+, 2.0 mM ADP, 37 °C) [2]	Molecule	X-ray crystallography [1]
0.376 μM	isocitrate dehydrogenase kinase/phosphatase (AceK) wild-type (enzyme) MPRGLELLIAQTILQGFDAQYGRFLEVTSGAQQRFEQADWHAVQQAMKNRIHLYDHHVGLVVEQLRCITNGQSTDAAFLLRVKEHYTRLLPDYPRFEIAESFFNSVYCRLFDHRSLTPERLFIFSSQPERRFRTIPRPLAKDFHPDHGWESLLMRVISDLPLRLRWQNKSRDIHYIIRHLTETLGTDNLAESHLQVANELFYRNKAAWLVGKLITPSGTLPFLLPIHQTDDGELFIDTCLTTTAEASIVFGFARSYFMVYAPLPAALVEWLREILPGKTTAELYMAIGCQKHAKTESYREYLVYLQGCNEQFIEAPGIRGMVMLVFTLPGFDRVFKVIKDRFAPQKEMSAAHVRACYQLVKEHDRVGRMADTQEFENFVLEKRHISPALMELLLQEAAEKITDLGEQIVIRHLYIERRMVPLNIWLEQVEGQQLRDAIEEYGNAIRQLAAANIFPGDMLFKNFGVTRHGRVVFYDYDEICYMTEVNFRDIPPPRYPEDELASEPWYSVSPGDVFPEEFRHWLCADPRIGPLFEEMHADLFRADYWRALQNRIREGHVEDVYAYRRRQRFSVRYGEMLF	
12.2 μM	AceK D477K (enzyme) MPRGLELLIAQTILQGFDAQYGRFLEVTSGAQQRFEQADWHAVQQAMKNRIHLYDHHVGLVVEQLRCITNGQSTDAAFLLRVKEHYTRLLPDYPRFEIAESFFNSVYCRLFDHRSLTPERLFIFSSQPERRFRTIPRPLAKDFHPDHGWESLLMRVISDLPLRLRWQNKSRDIHYIIRHLTETLGTDNLAESHLQVANELFYRNKAAWLVGKLITPSGTLPFLLPIHQTDDGELFIDTCLTTTAEASIVFGFARSYFMVYAPLPAALVEWLREILPGKTTAELYMAIGCQKHAKTESYREYLVYLQGCNEQFIEAPGIRGMVMLVFTLPGFDRVFKVIKDRFAPQKEMSAAHVRACYQLVKEHDRVGRMADTQEFENFVLEKRHISPALMELLLQEAAEKITDLGEQIVIRHLYIERRMVPLNIWLEQVEGQQLRDAIEEYGNAIRQLAAANIFPGDMLFKNFGVTRHGRVVFYDYKEICYMTEVNFRDIPPPRYPEDELASEPWYSVSPGDVFPEEFRHWLCADPRIGPLFEEMHADLFRADYWRALQNRIREGHVEDVYAYRRRQRFSVRYGEMLF	
